# Assay results from patent US20100056445A1, “ADIPONECTIN FOR THE TREATMENT AND DIAGNOSIS OF ALBUMINURIA” (THOMAS JEFFERSON UNIVERSITY, priority 2006, published 2010).
# Entries after “also recorded” stand apart in the source; their conditions may differ.
# B1: adiponectin: 30 kDa adipocyte-secreted protein; in the first series of tests the recombinant globular domain was used, later gAd or fAd (protein, UniProt Q15848 19-244, looked up)
# Adiponectin: ETTTQGPGVLLPLPKGACTGWMAGIPGHPGHNGAPGRDGRDGTPGEKGEKGDPGLIGPKGDIGETGVPGAEGPRGFPGIQGRKGEPGEGAYVYRSAFSVGLETYVTIPNMPIRFTKIFYNQQNHYDGSTGKFHCNIPGLYYFAYHITVYMKDVKVSLFKKDKAMLFTYDQYQENNVDQASGSVLLHLEVGDQVWLQVYGEGERNGLYADNDNDSTFTGFLLYHDTN
# Experiments:
# podocyte monolayer = assay: Albumin permeability across differentiated podocyte monolayer (Transwell); type: cell-based, mouse; conditions: adiponectin (globular or full length) 3 μg/ml, serum free, vs. control
# Method: Podocyte cell culture: Conditionally immortalized mouse podocytes were kindly provided by Dr. Peter Mundel (Albert Einstein College of Medicine, Bronx, N.Y.) and were cultured as previously described (27). The cells harbor a temperature-sensitive variant of the SV40 large T antigen (tsA58) that is inducible by γ-interferon and stable at 33° C. but rapidly degraded at 37° C. (27). At 33° C., the large T antigen allows for cellular proliferation. The proliferating cells are maintained in collagen I—coated flasks in RPMI-1640 media supplemented with 10% FBS and 10 units/ml mouse recombinant γ-interferon. When the cells have reached confluence, they are passaged and allowed to differentiate at 37° C. for 8-10 days without γ-interferon in Dulbecco's modified Eagle's medium containing 5.5 mmol/l glucose and 5% FCS. For the permeability assay a modification of a previously published protocol (28) was adopted. Differentiated podocytes (0.2×10^6 podocytes/well) plated on collagen coated 24 well Transwell plates (Corning) were serum-starved ovenight when confluent. Cells were then modulated with globular adiponectin (PepROTech Inc.) with or without 1 mM adenosine 9-p-D-arabinofuranoside (ARA-A) (Sigma, St. Louis, Mo.), for 24 h. Cells were then washed twice with PBS supplemented with 1 mM MgCl2 and 1 mM CaCl2. The upper compartment was refilled with 0.25 ml RPMI 1640 alone and the lower compartment with 0.5 ml RPMI 1640 supplemented with 40 mg/ml BSA and incubated for 2 hour at 37° C. Total protein concentration in the upper compartment was determined using a Bio-Rad protein assay (Bio-Rad Laboratories, Hercules, Calif.).
# AMPK = AMPK activity (p-Thr172 AMPKα) in podocytes by immunoblotting and confocal microscopy; type: cell-based, mouse
# From the text: Western immunoblotting: Total protein from mouse podocytes was solubilized in lysis buffer containing 1% Triton X-100, Protease Inhibitor Cocktail (Mini Complete Protease Inhibitor Cocktail, Roche, Germany), PMSF, and phosphatase inhibitors. Protein was resolved on SDS-PAGE and transferred to a nitrocellulose membrane (Bio-Rad, Hercules, Calif.) as previously described (29). The membrane was immunoblotted initially with rabbit anti mouse phospho-AMPKα (p-AMPKα) monoclonal antibody or with rabbit anti AMPKα monoclonal (Cell Signaling Technology, New England Bio Labs, Boston, Mass.). Subsequently membranes were blotted with a secondary donkey anti-rabbit antibody (Amersham Biosciences, Piscataway, N.J.) conjugated to horseradish peroxidase (HRP). […]
# (§1) Immunohistochemistry: Immunocytochemistry was performed as described previously (30). […] Fluorescence pictures were obtained using confocal laser fluorescence microscope (LSM-510, Carl Zeiss, Jena, Germany). […] Quantitation of p-AMPKα positive cells was performed on 50 glomeruli from 4 mice in each group.
# as §1, with “p-AMPKa” for “p-AMPKα”, “group. […]” for “group.”
molecule,measurement,setting,value
B1,Permeability of albumin across a podocyte monolayer,podocyte monolayer,reduced
same,AMPK activity (AMPKα phosphorylation on Thr-172) in podocytes,"AMPK; globular adiponectin 3 μg/ml, 24 h, serum-free, normal glucose",increased
same,Effect on the high glucose (HG) decrease of AMPK activity in podocytes,AMPK; high glucose exposure plus adiponectin,prevented; also recorded: blocked
